We go through one protein from PMC9426524.

Substrate in this data set: CC(=O)C=O
The data set is described as follows: purified protein.

B1: (Homo sapiens) (protein)
chain: MASKRALVILAKGAEEMETVIPVDVMRRAGIKVTVAGLAGKDPVQCSRDVVICPDASLEDAKKEGPYDVVVLPGGNLGAQNLSESAAVKEILKEQENRKGLIAAICAGPTALLAHEIGFGSKVTTHPLAKDKMMNGGHYTYSENRVEKDGLILTSRGPGTSFEFALAIVEALNGKEVAAQVKAPLVLKD
As for B1, the Km (as a rule, the substrate concentration at which the rate is half of its maximum) was 340 ± 40 µM; the kcat (in general, the number of substrate molecules converted per active site and unit of time at saturation) was found to be 0.126 ± 0.004 s⁻¹.
